The chains are these.
B1: PCT Nb3 (VHH)
VHH: QVQLQESGGGSVQVGGSLRLSCAASGYTYSSACMGWFRQAPGKEREWVGSIVSDSDDRTNYADAVKGRFTITQDNAKNTVYLQMNSLKPEDTAMYYCAARPGNCFIATKTRRYDYWGQGTQVTVSS
notes: VHH from a naïve bactrian camel phage display library; Expressed from phagemid pMECS; source: E. coli WK6, periplasmic extract by osmotic shock, purified (Ni-NTA, 500 mM imidazole); not shown: HA, C-terminal, kept
B2: PCT Nb1 (VHH)
VHH: QVQLQESGGGSVQAGGSLRLSCLASGYTYSSYCMGWFRQAPGKEREGVAAIGSDGSTSYADSVKGRFTISQDNAKNTLYLQMNSLKPEDTAMYYCAASKSEYDCYSGSGGLFGYWGQGTQVTVSS
notes: as for B1
B3: PCT Nb2 (VHH)
VHH: QVQLQESGGGSVQAGGSLRLSCAASTSSNVNVCMGWFRQAPGKEREGVAVIARDSETNYAASVKGRFTISQDNAKNTLYLQLNSLKPEDTAMYYCAAGPCANIRGSWSNSRLLRYNFWGQGTQVTVSS
notes: as for B1

The record followed here is publication PMC4475299, “Characterization and applications of Nanobodies against human procalcitonin selected from a novel naïve Nanobody phage display library” (Journal of Nanobiotechnology, 2015).

This test deals with T1, human procalcitonin (Homo sapiens, UniProt P01258).
T1 construct: human procalcitonin (PCT), the product of preprocalcitonin after removal of the signal peptide; Bought protein; also called PCT; source: bought: Huibiao Biological Technology Co., Ltd
The test is described as follows: SPR; SPRi on PlexArray HT; Nbs spotted and immobilised on NanoCapture 3D-chip; PCT injected at 9.7, 29.2, 87.6 and 263 nM in PBST, 2 uL/s; 1:1 Langmuir fit. The following applies: both partners purified.
Regarding B1, the Kd amounted to 8.89 nM, the dissociation rate constant (koff) was determined as 0.000383 s⁻¹ and the kon amounted to 43100 M⁻¹ s⁻¹.

As for B2, the dissociation constant (Kd) was 12.3 nM, the dissociation rate constant (koff) came out at 0.00051 s⁻¹ and the kon was determined as 41600 M⁻¹ s⁻¹.

As for B3, the Kd was 1.34 nM, the koff was found to be 0.000197 s⁻¹ and the kon was 147000 M⁻¹ s⁻¹.
